The values below are quoted from earlier work in publication PMC4188015.

For data set [1], the target named is Human insulin (Homo sapiens) (UniProt P01308). Put plainly: ITC.
In data set [2] the target is insulin receptor isoform A (Homo sapiens) (UniProt P06213).
In data set [3] the target is insulin receptor site 1 (Homo sapiens) (UniProt P06213).
Data set [4] deals with insulin receptor site 2 (Homo sapiens) (UniProt P06213).

For Human insulin (from UniProt P01308), the Kd – broadly, the constant that tells how readily two partners part at equilibrium – in data set [1] was 8810 nM. On to IGF-II (from UniProt P01344), for which the equilibrium dissociation constant (Kd) in data set [2] is 4 nM. In the case of insulin (from UniProt P01308), the dissociation constant Kd in data set [3] is 6.4 nM; in data set [4] it was 400 nM.
